Source: US20220162261A1 (published 2022)
Bridge positions count the residues as written; N and C are the ends. Square brackets hold non-standard residues; d marks the D form. Ends that are not written are not given here. Phe(4-tBu) = CC(C)(C)c1ccc(C[C@H](N)C(=O)O)cc1; 2Nal = N[C@@H](Cc1ccc2ccccc2c1)C(=O)O; NMeR = CN[C@@H](CCCNC(=N)N)C(=O)O; β3hE = N[C@@H](CCC(=O)O)CC(=O)O; Pen = CC(C)(S)[C@H](N)C(=O)O

Legend:
[1] = target: human α4β7 integrin on cells (human) (UniProt P13612); experiment: RPMI8866 cell adhesion to MAdCAM-1
[2] = target: rh integrin α4β7 (R&D Systems #5397-A30) (human) (UniProt P13612); experiment: competition ELISA vs MAdCAM-1
[3] = target: mouse α4β7 integrin on TK1 cells (mouse) (UniProt Q00651); experiment: TK1 cell adhesion to MAdCAM-1
mouse α4β7 integrin on TK1 cells (mouse), sequence (Q00651 41-1039, chain 1 of 2): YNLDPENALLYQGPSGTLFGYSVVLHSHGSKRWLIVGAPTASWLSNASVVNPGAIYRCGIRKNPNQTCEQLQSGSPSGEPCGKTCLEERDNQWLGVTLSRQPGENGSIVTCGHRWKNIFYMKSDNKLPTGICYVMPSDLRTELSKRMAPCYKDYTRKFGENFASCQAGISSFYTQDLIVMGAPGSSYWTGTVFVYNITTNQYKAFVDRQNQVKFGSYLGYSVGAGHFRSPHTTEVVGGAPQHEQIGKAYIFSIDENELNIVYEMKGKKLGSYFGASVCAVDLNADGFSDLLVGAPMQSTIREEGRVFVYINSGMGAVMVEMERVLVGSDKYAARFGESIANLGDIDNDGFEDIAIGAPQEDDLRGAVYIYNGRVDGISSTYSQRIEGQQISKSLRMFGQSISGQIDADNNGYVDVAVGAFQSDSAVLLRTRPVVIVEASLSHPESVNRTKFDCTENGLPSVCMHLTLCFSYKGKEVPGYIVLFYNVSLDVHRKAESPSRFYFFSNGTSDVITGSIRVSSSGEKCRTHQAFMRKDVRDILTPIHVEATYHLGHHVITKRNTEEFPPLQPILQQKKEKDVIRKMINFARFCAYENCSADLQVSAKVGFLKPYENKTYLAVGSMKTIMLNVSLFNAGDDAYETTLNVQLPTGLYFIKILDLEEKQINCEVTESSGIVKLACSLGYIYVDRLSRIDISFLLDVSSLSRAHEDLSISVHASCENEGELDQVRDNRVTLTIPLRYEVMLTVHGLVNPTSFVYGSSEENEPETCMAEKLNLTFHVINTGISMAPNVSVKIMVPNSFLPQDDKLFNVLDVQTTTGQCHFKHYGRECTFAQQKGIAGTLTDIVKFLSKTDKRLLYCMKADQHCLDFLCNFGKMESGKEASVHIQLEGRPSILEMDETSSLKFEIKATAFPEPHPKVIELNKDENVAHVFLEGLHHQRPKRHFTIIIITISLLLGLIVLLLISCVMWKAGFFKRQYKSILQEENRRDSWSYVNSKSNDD
mouse α4β7 integrin on TK1 cells (mouse), sequence (P26011 20-806, chain 2 of 2, further chain): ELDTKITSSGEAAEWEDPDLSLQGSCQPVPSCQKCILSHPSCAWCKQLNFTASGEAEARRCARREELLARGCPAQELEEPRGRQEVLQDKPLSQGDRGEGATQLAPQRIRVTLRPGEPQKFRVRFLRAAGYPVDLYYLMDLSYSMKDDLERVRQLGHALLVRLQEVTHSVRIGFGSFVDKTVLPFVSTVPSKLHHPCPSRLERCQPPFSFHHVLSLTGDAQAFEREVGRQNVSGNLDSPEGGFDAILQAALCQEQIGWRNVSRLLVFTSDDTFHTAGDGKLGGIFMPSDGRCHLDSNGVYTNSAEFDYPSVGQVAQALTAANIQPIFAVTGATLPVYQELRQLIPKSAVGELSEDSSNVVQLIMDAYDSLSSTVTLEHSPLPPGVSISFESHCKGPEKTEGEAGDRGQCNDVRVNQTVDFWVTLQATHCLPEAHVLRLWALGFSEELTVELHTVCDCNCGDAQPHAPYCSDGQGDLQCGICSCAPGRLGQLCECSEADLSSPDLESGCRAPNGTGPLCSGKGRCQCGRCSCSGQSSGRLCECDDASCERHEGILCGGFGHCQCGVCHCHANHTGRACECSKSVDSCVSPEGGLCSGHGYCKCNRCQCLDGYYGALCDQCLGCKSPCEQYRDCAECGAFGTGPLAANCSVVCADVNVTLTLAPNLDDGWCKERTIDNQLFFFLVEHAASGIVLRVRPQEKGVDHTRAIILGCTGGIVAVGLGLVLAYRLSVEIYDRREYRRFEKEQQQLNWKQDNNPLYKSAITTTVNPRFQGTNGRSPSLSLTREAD

[4] = target: α4β1 (R&D Systems #5668-A4) (UniProt P13612); experiment: competition ELISA vs VCAM-1
[5] = target: human α4β1 integrin on cells (human) (UniProt P13612); experiment: Jurkat cell adhesion to VCAM-1
[6] = target: T1, human α4β7 integrin on cells (human, UniProt P13612 34-1032; P26010 20-798); experiment: RPMI8866 cell adhesion to MAdCAM-1
T1 construct: whole, on cells; also called α4β7 cell (Hu); RPMI8866 cells

[7] = target: T2, human αLβ2 integrin on cells (human, UniProt P20701 26-1170; P05107 23-769); experiment: memory T cell adhesion to ICAM-1
T2 construct: whole, on cells; also called aLβ2
T2 sequence (P20701 26-1170, chain 1 of 2): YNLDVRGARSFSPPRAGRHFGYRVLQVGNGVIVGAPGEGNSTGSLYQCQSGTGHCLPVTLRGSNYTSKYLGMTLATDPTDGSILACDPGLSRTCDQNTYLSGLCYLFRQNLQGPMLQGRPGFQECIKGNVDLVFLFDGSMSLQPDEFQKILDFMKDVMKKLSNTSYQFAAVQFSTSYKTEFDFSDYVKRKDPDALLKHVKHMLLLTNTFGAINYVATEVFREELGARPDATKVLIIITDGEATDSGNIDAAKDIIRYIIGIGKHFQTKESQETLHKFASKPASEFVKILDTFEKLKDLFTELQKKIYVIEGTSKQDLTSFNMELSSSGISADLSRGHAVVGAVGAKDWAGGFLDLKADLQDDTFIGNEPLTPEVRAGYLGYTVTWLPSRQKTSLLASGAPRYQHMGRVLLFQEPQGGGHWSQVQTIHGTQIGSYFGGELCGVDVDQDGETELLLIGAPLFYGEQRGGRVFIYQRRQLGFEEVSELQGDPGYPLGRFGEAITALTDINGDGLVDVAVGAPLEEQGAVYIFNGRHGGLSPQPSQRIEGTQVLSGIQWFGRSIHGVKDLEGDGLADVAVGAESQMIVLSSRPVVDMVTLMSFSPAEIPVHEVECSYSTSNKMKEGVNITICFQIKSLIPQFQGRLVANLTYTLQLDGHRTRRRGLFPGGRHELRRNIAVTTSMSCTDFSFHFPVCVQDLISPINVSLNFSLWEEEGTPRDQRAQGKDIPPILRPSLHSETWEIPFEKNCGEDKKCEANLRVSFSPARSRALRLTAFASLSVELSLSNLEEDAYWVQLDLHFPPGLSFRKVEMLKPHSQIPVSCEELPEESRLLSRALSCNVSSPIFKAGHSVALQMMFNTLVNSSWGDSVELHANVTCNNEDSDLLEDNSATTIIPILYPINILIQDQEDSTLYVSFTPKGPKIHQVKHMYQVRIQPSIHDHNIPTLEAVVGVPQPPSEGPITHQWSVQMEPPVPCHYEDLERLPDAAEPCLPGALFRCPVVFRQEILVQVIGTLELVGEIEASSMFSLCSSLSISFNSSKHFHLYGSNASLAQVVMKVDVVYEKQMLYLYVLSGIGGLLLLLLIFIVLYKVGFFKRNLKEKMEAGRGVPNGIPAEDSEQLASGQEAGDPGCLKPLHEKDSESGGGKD
T2 sequence (P05107 23-769, chain 2 of 2): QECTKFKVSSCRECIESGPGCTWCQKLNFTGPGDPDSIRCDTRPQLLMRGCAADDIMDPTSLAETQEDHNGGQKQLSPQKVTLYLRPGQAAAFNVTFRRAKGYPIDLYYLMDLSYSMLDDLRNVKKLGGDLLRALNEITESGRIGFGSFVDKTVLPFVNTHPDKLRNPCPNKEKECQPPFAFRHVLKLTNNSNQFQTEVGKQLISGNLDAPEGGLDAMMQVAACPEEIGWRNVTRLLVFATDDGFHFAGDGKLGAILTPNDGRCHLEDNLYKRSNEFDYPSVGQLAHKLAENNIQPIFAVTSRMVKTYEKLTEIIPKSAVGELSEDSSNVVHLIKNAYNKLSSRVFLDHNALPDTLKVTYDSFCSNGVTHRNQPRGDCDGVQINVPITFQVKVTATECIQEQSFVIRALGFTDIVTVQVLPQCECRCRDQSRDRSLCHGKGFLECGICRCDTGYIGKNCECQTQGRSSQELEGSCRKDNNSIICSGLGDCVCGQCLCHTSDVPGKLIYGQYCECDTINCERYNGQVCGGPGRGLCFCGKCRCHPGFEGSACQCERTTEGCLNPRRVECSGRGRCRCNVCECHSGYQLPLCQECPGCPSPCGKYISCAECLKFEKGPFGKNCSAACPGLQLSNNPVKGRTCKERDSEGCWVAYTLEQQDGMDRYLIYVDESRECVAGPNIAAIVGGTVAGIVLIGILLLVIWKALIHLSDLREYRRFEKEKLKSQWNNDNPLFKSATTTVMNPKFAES

[8] = target: T3, human α4β1 integrin on cells (human, UniProt P13612 34-1032; P05556 21-798); experiment: memory T cell adhesion to VCAM-1
T3 construct: whole, on cells; also called α4β1 cell; Jurkat cells

[9] = target: T1, human α4β7 integrin on cells; experiment: α4β7 T cells
[10] = target: T4, rh integrin α4β7 (R&D Systems #5397-A30) (human, UniProt P13612 34-970; P26010 20-723); experiment: competition ELISA vs MAdCAM-1, 1 mM Mg
T4 construct: bought; coated on a nickel coated plate; also called immobilized α4β7; immobilized α4β7 integrin protein

[11] = target: T5, α4β1 (R&D Systems #5668-A4) (UniProt P13612 34-970; P05556 21-728, limits assumed); experiment: competition ELISA vs VCAM-1, 1 mM Mg
T5 construct: bought; also called soluble α4β1
Method: The solution was removed by shaking and then blocked with 250 ul of 1% BSA in 1×PBS per well. The wells were then incubated at room temperature for 1 hr with shaking. Each well was then washed once with wash buffer (50 mM Tris-HCl pH7.6, 100 mM NaCL, 1 mM MnCl2 or MgCl2, 0.05% Tween-20). 25 ul of serial dilutions of peptides starting at […] in assay buffer (Assay buffer: 50 mM Tris-HCl pH7.6, 100 mM NaCl, 1 mM MnCl2 or MgCl2, 0.05% Tween-20) was added to each well. Additionally, 25 ul of α4β1 (R&D Systems #5668-A4) was added to each well at a fixed concentration of 120 nM. The final peptide and α4β1 concentrations were […] and 60 nM, respectively. The plates were then incubated at 37° C. for 2 hr. The solution was then removed by shaking, and each well was washed three times with wash buffer. 50 ul of 9F10 antibody at 4 ug/ml (purified mouse anti-human CD49d, BD Bioscience Cat #555502) was then added to each well, and the plate was incubated at room temperature for 1 hr with shaking. The solution was again removed by shaking, and each well was washed three times with wash buffer. 50 ul of peroxidase-conjugated AffiniPure Goat anti-mouse IgG (Jackson immune research cat #115-035-003) diluted in 1:5000 in assay buffer was added to each well. The plate was incubated at room temperature for 30 min with shaking. […] The reaction was stepped with 2N H₂SO₄ and absorbance was read at 450 nm. […]

[12] = target: T6, mouse α4β7 integrin on TK1 cells (mouse, UniProt Q00651 41-1039; P26011 20-806); experiment: TK1 cell adhesion to MAdCAM-1
T6 construct: whole, on cells; also called α4β7 cell (Mu); Cell Adhesion α4β7 Mouse
T6 sequence (Q00651 41-1039, chain 1 of 2): as the sequence (Q00651 41-1039, chain 1 of 2) above
T6 sequence (P26011 20-806, chain 2 of 2): as the sequence (P26011 20-806, chain 2 of 2, further chain) above

[13] = target: T1, human α4β7 integrin on cells; experiment: memory T cell adhesion to MAdCAM-1, average of 4 donors
[14] = target: T1, human α4β7 integrin on cells; experiment: PBMC memory T cell adhesion
[15] = target: T6, mouse α4β7 integrin on TK1 cells; experiment: TK1 cell adhesion to MAdCAM-1; remark: listed apart in the source
[16] = target: T3, human α4β1 integrin on cells; experiment: Jurkat cell adhesion to VCAM-1
[17] = target: T5, α4β1 (R&D Systems #5668-A4); experiment: competition ELISA vs VCAM-1; acetate salt
[18] = target: T1, human α4β7 integrin on cells; experiment: RPMI8866 cell adhesion to MAdCAM-1; acetate salt
[19] = target: T4, rh integrin α4β7 (R&D Systems #5397-A30); experiment: competition ELISA vs MAdCAM-1; acetate salt
[20] = target: T6, mouse α4β7 integrin on TK1 cells; experiment: TK1 cell adhesion to MAdCAM-1; acetate salt
[21] = target: T4, rh integrin α4β7 (R&D Systems #5397-A30); experiment: competition ELISA vs MAdCAM-1
[22] = target: T1, human α4β7 integrin on cells; experiment: PBMC memory T cell adhesion; acetate salt
[23] = target: T1, human α4β7 integrin on cells; experiment: RPMI8866 cell adhesion to MAdCAM-1; remark: listed apart in the source
[24] = target: human α4β7 integrin on cells (human) (UniProt P13612); experiment: PBMC memory T cell adhesion
[25] = target: human α4β7 integrin on cells (human) (UniProt P13612); experiment: FACS, human whole blood, CD4 naïve T cells
[26] = target: human α4β7 integrin on cells (human) (UniProt P13612); experiment: FACS, human whole blood, Neutrophils
[27] = target: human α4β7 integrin on cells (human) (UniProt P13612); experiment: FACS, human whole blood, CD19+ B cells
[28] = target: human α4β7 integrin on cells (human) (UniProt P13612); experiment: FACS, human whole blood, Basophils
[29] = target: human α4β7 integrin on cells (human) (UniProt P13612); experiment: FACS, human whole blood, CD8 naïve T cells
soluble α4β7 integrin = soluble α4β7 integrin (UniProt P13612); experiment: SPR, binder on streptavidin chip, soluble α4β7
[30] = target: human α4β7 integrin on cells (human) (UniProt P13612); experiment: FACS, human whole blood, Monocytes
[31] = target: human α4β7 integrin on cells (human) (UniProt P13612); experiment: FACS, human whole blood, NK cells CD16+ 56+
[32] = target: human α4β7 integrin on cells (human) (UniProt P13612); experiment: FACS, human whole blood, Eosinophils
[33] = target: human α4β7 integrin on cells (human) (UniProt P13612); experiment: FACS, human whole blood, CD8 memory T cells
[34] = target: human α4β7 integrin on cells (human) (UniProt P13612); experiment: FACS, human whole blood, CD4 memory T cells
[35] = target: T5, α4β1 (R&D Systems #5668-A4); experiment: competition ELISA vs VCAM-1

Ac-[Pen][NMeR]SDTL[Pen][2Nal]E[dK]-NH2 (disulfide 1-7; also: dimer (…)2 DIG, attachment not given here) [SEQ ID NO: 212] gave an IC50 [1] of 2.5 nM, an IC50 [2] of 2 nM and an IC50 [3] of 2.5 nM. The IC50 [4] was 70 nM and the IC50 [5] was greater than 100000 nM.

B1: Peptide X (peptide)
peptide: Ac-[Pen][NMeR]SDTL[Pen][Phe(4-tBu)][β3hE][dK]
modifications: disulfide 1-7; not fully specified (residue 10); printed as [Ac-Pen-(N-Me-Arg)-Ser-Asp-Thr-Leu-Pen-Phe(4-tBu)-(β-homoGlu)-(D-Lys)]2-DIG; also: homodimer via DIG linker on D-Lys side chains
notes: also called Compound X
For B1, the IC50 [6] was 0.72 nM, the IC50 [7] was greater than 100000 nM and the IC50 [8] was greater than 100000 nM. It also gave an IC50 [9] of 1 nM, an IC50 [10] of 3 nM and an IC50 [11] greater than 10000 nM. The IC50 [12] was 0.5 nM and the IC50 [13] was 1.3 nM.

B2: SEQ ID NO: 132 (peptide)
peptide: Ac-[Pen][NMeR]SDTL[Pen][Phe(4-tBu)][β3hE][dK]-NH2
modifications: disulfide 1-7; not fully specified (residue 10); printed as (Ac Pen N-Me-R S D T L Pen F(4tBu) b-H-E k NH2)2 DIG, disulfide Pen-Pen; also: homodimer, two subunits joined by DIG linker
notes: the second listing is the acetate salt
In the case of B2, the IC50 [14] is reported as no more than 10 nM, the IC50 [15] is reported as no more than 10 nM and the IC50 [16] is reported as greater than 100000 nM. It also gave an IC50 [17] greater than 500 nM, an IC50 [18] of no more than 10 nM and an IC50 [19] of no more than 10 nM. It also gave an IC50 [20] of no more than 10 nM, an IC50 [21] of no more than 10 nM and an IC50 [22] of no more than 10 nM. For the same binder, the IC50 [23] was no more than 10 nM.

B3: SEQ ID NO: 210 (peptide)
peptide: Ac-[Pen][NMeR]SDTL[Pen][2Nal]E[dK]-NH2
modifications: disulfide 1-7
SMILES: CC(=O)N[C@@H]1C(=O)N(C)[C@@H](CCCNC(=N)N)C(=O)N[C@@H](CO)C(=O)N[C@@H](CC(=O)O)C(=O)N[C@@H]([C@@H](C)O)C(=O)N[C@@H](CC(C)C)C(=O)N[C@H](C(=O)N[C@@H](Cc2ccc3ccccc3c2)C(=O)N[C@@H](CCC(=O)O)C(=O)N[C@H](CCCCN)C(N)=O)C(C)(C)SSC1(C)C
B3 was tested, and the IC50 [24] was 517 nM, the IC50 [1] was 40 nM and the IC50 [2] was 11 nM. The IC50 [3] was 60 nM, the IC50 [4] was 200 nM and the IC50 [5] was greater than 100000 nM.

B4: biotin-labeled vedolizumab antibody (antibody, INN chains, looked up, V domains shown)
VH: QVQLVQSGAEVKKPGASVKVSCKGSGYTFTSYWMHWVRQAPGQRLEWIGEIDPSESNTNYNQKFKGRVTLTVDISASTAYMELSSLRSEDTAVYYCARGGYDGWDYAIDYWGQGTLVTVSS
VL: DVVMTQSPLSLPVTPGEPASISCRSSQSLAKSYGNTYLSWYLQKPGQSPQLLIYGISNRFSGVPDRFSGSGSGTDFTLKISRVEAEDVGVYYCLQGTHQPYTFGQGTKVEIKR
modifications: biotin label
B4 was tested, and the Percent positive staining [25] was 55%, the Percent positive staining [26] was 0.45% and the Percent positive staining [27] was 85%. For the same binder, the Percent positive staining [28] was 86%, the Percent positive staining [29] was 53% and the Half-life for dissociation (soluble α4β7 integrin) was 43 min. The Kd (soluble α4β7 integrin) was 59.5 nM, the koff (soluble α4β7 integrin) was 0.000266 s⁻¹ and the kon (soluble α4β7 integrin) was 4470 M⁻¹ s⁻¹. For the same binder, the Percent positive staining [30] was 7%, the Percent positive staining [31] was 42% and the Percent positive staining [32] was 91%. It also gave a Percent positive staining [33] of 36% and a Percent positive staining [34] of 22%.

Ac-[Pen][NMeR]SDTL[Pen][2Nal][dE][dK]-NH2 (disulfide 1-7; also: dimer (…)2 DIG, attachment not given here) [SEQ ID NO: 33] was tested, and the IC50 [5] was greater than 100000 nM.

B5: SEQ ID NO: 68 (peptide)
peptide: Ac-[Pen][NMeR]SDTL[Pen]W[dE][dK]-NH2
modifications: disulfide 1-7; not fully specified (residue 10); printed as (Ac Pen N-Me-R S D T L Pen W e k NH2)2 DIG, disulfide Pen-Pen; also: homodimer via DIG linker
Work on B5 yielded an IC50 [14] greater than 100 nM, an IC50 [15] of no more than 10 nM and an IC50 [16] greater than 100000 nM. It also gave an IC50 [21] of no more than 10 nM, an IC50 [35] greater than 500 nM and an IC50 [23] greater than 25 nM.
